The test addresses recombinant Bet v 1 trimer (birch). As to the kind of experiment: SEC. (In general: SEC sorts molecules by how far they enter the pores of the column.)

The source of these data is PMC4067515.

For orientation: stoichiometry N means a count of units in the complex or per binding partner. Regarding recombinant Bet v 1 trimer, the stoichiometry N is 2.
